In IntAct's records for PubMed 15070730:

B1: WW domain-containing oxidoreductase (Homo sapiens), Q9NZC7 (parent)
chain: MAALRYAGLDDTDSEDELPPGWEERTTKDGWVYYANHTEEKTQWEHPKTGKRKRVAGDLPYGWEQETDENGQVFFVDHINKRTTYLDPRLAFTVDDNPTKPTTRQRYDGSTTAMEILQGRDFTGKVVVVTGANSGIGFETAKSFALHGAHVILACRNMARASEAVSRILEEWHKAKVEAMTLDLALLRSVQHFAEAFKAKNVPLHVLVCNAATFALPWSLTKDGLETTFQVNHLGHFYLVQLLQDVLCRSAPARVIVVSSESHRFTDINDSLGKLDFSRLSPTKNDYWAMLAYNRSKLCNILFSNELHRRLSPRGVTSNAVHPGNMMYSNIHRSWWVYTLLFTLARPFTKSMQQGAATTVYCAAVPELEGLGGMYFNNCCRCMPSPEAQSEETARTLWALSERLIQERLGSQSG
partner: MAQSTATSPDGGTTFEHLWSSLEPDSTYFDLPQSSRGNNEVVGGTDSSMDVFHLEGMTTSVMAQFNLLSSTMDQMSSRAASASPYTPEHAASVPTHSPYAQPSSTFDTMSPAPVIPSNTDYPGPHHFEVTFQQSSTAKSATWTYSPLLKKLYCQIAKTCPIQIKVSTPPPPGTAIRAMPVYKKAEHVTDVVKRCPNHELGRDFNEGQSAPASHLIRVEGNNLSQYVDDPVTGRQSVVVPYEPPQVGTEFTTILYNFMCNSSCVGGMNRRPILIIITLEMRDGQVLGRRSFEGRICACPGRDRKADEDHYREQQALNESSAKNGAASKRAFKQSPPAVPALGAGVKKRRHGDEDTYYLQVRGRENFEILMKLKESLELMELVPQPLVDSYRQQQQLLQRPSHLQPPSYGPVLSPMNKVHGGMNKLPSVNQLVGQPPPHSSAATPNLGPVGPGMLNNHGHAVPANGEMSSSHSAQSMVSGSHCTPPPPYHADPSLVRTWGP
B2: Tumor protein p73 (Homo sapiens), O15350-2 (parent)
chain: B1 partner
partner: B1 chain

Variants of: B1
Details: with TP73, O15350-2

Variant | effect of a mutation on the interaction
Y61R | with no effect
Y33R | disrupting interaction strength

Variants of: B1
Details: with TP73, O15350-2
Remark: another data set of the same source

Variant | effect of a mutation on the interaction
Y33F | with no effect
Y33R | decreasing interaction strength

Variants of: B2
Details: with wwox_human WWOX, Q9NZC7

Variant | effect of a mutation on the interaction
Y487A | disrupting interaction strength
